Test results published in the supplement of paper PMC10724198.
± gives the standard deviation of the averaged measurements.

tested on: Saccharomyces cerevisiae; assay: protein stability index of tFT-peptide fusion (C-terminal peptide) (PSI (0-1 scale)); higher = more stable (slower turnover); conditions: genetic background: wild type; temperature: 30 C
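Note: PSI is a weighted mean of sequencing reads over stability bins, variants kept only with over 10 reads, mCherry proximal and sfGFP distal, peptide attached via GGGS linker.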

Row | Sequence | protein stability index
1 | QPLSFAYMPPLS | 0.653 ± 0.033
2 | QPRVEYSSYWAV | 0.644 ± 0.034
3 | QQKKKTKGNNEV | 0.661 ± 0.065
4 | QQKKPIRKELRN | 0.702 ± 0.053
5 | QREKTRSWDIET | 0.686 ± 0.041
6 | QREYHENKIKYI | 0.563 ± 0.066
7 | QRKYTLCVRPFP | 0.697 ± 0.037
8 | QRSPNRISPADY | 0.798 ± 0.11
9 | QRVIELVLISNM | 0.539 ± 0.043
10 | QRWTAGTQIRPV | 0.706 ± 0.0086
11 | QSKANIVEEIWI | 0.688 ± 0.02
12 | QSPPDDRPPPHP | 0.676 ± 0.029
13 | QSPRLTSGPQPL | 0.652 ± 0.022
14 | QSQGTRLAPVTR | 0.729 ± 0.068
15 | QTKKKLTQSQRT | 0.694 ± 0.019
16 | QTRDFRRASYAP | 0.646 ± 0.019
17 | QTVPGKNLDGDL | 0.714 ± 0.013
18 | QVFITGHQLCVM | 0.535 ± 0.0064
19 | QVGPSPCHPFTL | 0.684 ± 0.0091
20 | QVWLLRPAPARV | 0.598 ± 0.12
21 | QYQDRHIDRSGR | 0.657 ± 0.078
22 | RAARGQQGGPVA | 0.651 ± 0.041
23 | RADIRYCNCRGQ | 0.607 ± 0.045

Row | Sequence | protein stability index
24 | RADLLQRGGDRI | 0.677 ± 0.093
25 | RAEGGDSGVAAL | 0.703 ± 0.011
26 | RAFASLALAILP | 0.623 ± 0.038
27 | RAFEGGRHCRAG | 0.67 ± 0.049
28 | RAGALYLGICDT | 0.738 ± 0.069
29 | RAGCWFAGYSRV | 0.721 ± 0.078
30 | RAGVFLPSGVAI | 0.663 ± 0.011
31 | RAGVRWGGGGGG | 0.67 ± 0.014
32 | RAHLVSAPPQNF | 0.7074 ± 0.0033
33 | RAHSGSTCCGAQ | 0.698 ± 0.04
34 | RAMWAGKGGDGW | 0.738 ± 0.086
35 | RAPDHRPGRLQK | 0.724 ± 0.013
36 | RAPGPGQIRLVQ | 0.72 ± 0.035
37 | RARCFGGFCAIP | 0.724 ± 0.088
38 | RARHDGWRHLYE | 0.707 ± 0.055
39 | RASLTPSDHLFF | 0.766 ± 0.02
40 | RASPPPPPPPPP | 0.658 ± 0.045
41 | RASPTTILCKRQ | 0.678 ± 0.025
42 | RAVLSNRVEERI | 0.696 ± 0.022
43 | RAYATPIPRSAI | 0.655 ± 0.046
44 | RCCGLWVDGFLL | 0.743 ± 0.045
45 | RCCLDLLIFPCS | 0.735 ± 0.15
46 | RCERKTGHHYRT | 0.637 ± 0.072

Row | Sequence | protein stability index
47 | RCETHKDHESNE | 0.725 ± 0.014
48 | RCRGPVYIPPGT | 0.654 ± 0.027
49 | RCRGTEGWLDSG | 0.63 ± 0.009
50 | RDAPLGRRLRPV | 0.678 ± 0.021
51 | RDGDVRTLMGWD | 0.732 ± 0.037
52 | RDGSNSNGKKKK | 0.6 ± 0.051
53 | RDLSEGRSPLGI | 0.661 ± 0.081
54 | RDPSIVDHTVVT | 0.735 ± 0.041
55 | RDSLGGRSMHGW | 0.682 ± 0.029
56 | RDVWPFTGKRAL | 0.672 ± 0.014
57 | REEREISGNLLV | 0.7899 ± 0.0075
58 | REGKGREQGRKK | 0.616 ± 0.053
59 | REGKIVNNKNEN | 0.687 ± 0.077
60 | REGVELTRPVTC | 0.696 ± 0.041
61 | REKDMIKSGIKS | 0.724 ± 0.02
62 | REMDDRLEQSVP | 0.743 ± 0.017
63 | REPPFFRLSPQV | 0.722 ± 0.042
64 | REQKTKDKKKRQ | 0.703 ± 0.024
65 | RERNNISVKGKL | 0.679 ± 0.049
66 | RERPHSDYLACH | 0.691 ± 0.026
67 | RESTKNETSGKK | 0.632 ± 0.04
68 | REVIGFLSYWKG | 0.711 ± 0.14
69 | RFCRAFSGALSR | 0.805 ± 0.021

Row | Sequence | protein stability index
70 | RFDGLTTALDSV | 0.669 ± 0.04
71 | RFFPPPARPSPF | 0.732 ± 0.025
72 | RFLMGYEVNCAV | 0.548 ± 0.015
73 | RFMAFGDKEILR | 0.662 ± 0.033
74 | RFPLCLHLPLLL | 0.55 ± 0.012
75 | RFPLSLRIPLPK | 0.63 ± 0.034
76 | RFSPARPASPPP | 0.687 ± 0.036
77 | RFWGWCSAVLSS | 0.622 ± 0.056
78 | RGAHVTRPGTRD | 0.66 ± 0.034
79 | RGALGVVWAGLD | 0.638 ± 0.021
80 | RGARGIGVRLRV | 0.651 ± 0.026
81 | RGASDYARMSAF | 0.7047 ± 0.0037
82 | RGDGAGQARGVV | 0.684 ± 0.053
83 | RGDGVRGGKNGR | 0.689 ± 0.034
84 | RGEVWVEVALGV | 0.642 ± 0.021
85 | RGFSLSCCERSI | 0.749 ± 0.026
86 | RGGAGRRWGRGK | 0.631 ± 0.073
87 | RGGGGGGGAAGS | 0.657 ± 0.037
88 | RGGGGRGFAGRK | 0.608 ± 0.038
89 | RGGGLGGLRSRA | 0.823 ± 0.081
90 | RGGGRGVWGHVV | 0.607 ± 0.0063
91 | RGGGWVLEVLLG | 0.5195 ± 0.0024
92 | RGGWGGGDCVGA | 0.688 ± 0.09

Row | Sequence | protein stability index
93 | RGGWRVTNKKNI | 0.645 ± 0.023
94 | RGKSPPPSSPPL | 0.684 ± 0.024
95 | RGLRRIPDAPPH | 0.757 ± 0.028
96 | RGLSCAAYFSGA | 0.727 ± 0.028
97 | RGPPPTSPPSPP | 0.664 ± 0.013
98 | RGPSSPTPRPAA | 0.77 ± 0.13
99 | RGRGRGGPLSGG | 0.731 ± 0.017
100 | RGRGRISGSWGT | 0.718 ± 0.013
101 | RGRGRVRPRRKR | 0.6831 ± 0.0011
102 | RGRLVVGAGRED | 0.697 ± 0.049
103 | RGRQRSDPPTRL | 0.717 ± 0.061
104 | RGRWLKNARLSM | 0.634 ± 0.065
105 | RGRWRVGWGVGD | 0.67 ± 0.017
106 | RGRWVDWLSFTF | 0.7278 ± 0.0022
107 | RGSPFTAWSVLR | 0.753 ± 0.019
108 | RGSPPDPRGRAG | 0.685 ± 0.074
109 | RGSRFVAGGGSV | 0.702 ± 0.038
110 | RGSVSCLQLIGC | 0.651 ± 0.034
111 | RGSYLAFRVYGP | 0.648 ± 0.03
112 | RGVCVVGGCWLV | 0.609 ± 0.016
113 | RGVGEGFRAGCG | 0.672 ± 0.0098
114 | RGVIWLVCGGPC | 0.54 ± 0.032
115 | RGVVGFVGVVRE | 0.6445 ± 0.0027

Row | Sequence | protein stability index
116 | RGVWWWWGVAGA | 0.749 ± 0.17
117 | RGWGGGRKVSVG | 0.652 ± 0.036
118 | RGWKDQYIDADR | 0.689 ± 0.012
119 | RGWRYRAEGFRG | 0.663 ± 0.022
120 | RHGRDNPSGRLN | 0.6902 ± 0.0046
121 | RHRFDHWGPGPW | 0.72 ± 0.055
122 | RHVCPLLYPCSS | 0.635 ± 0.036
123 | RIAARAIISRGG | 0.657 ± 0.021
124 | RILSCGCVCFVM | 0.702 ± 0.031
125 | RIMFVGYPLDWL | 0.674 ± 0.041
126 | RIPSDLTLNPRG | 0.669 ± 0.05
127 | RISWLKEATAIK | 0.689 ± 0.019
128 | RITSSLCPPLLR | 0.695 ± 0.013
129 | RKDNRRIMIKKR | 0.648 ± 0.015
130 | RKGFMQRHDTLD | 0.6749 ± 0.0019
131 | RKGVSLAILLGP | 0.67 ± 0.055
132 | RKKDHKSIIQII | 0.57779 ± 0.00015
133 | RKKKRKKKKTER | 0.647 ± 0.041
134 | RKKNEKKEDNKK | 0.747 ± 0.12
135 | RKKREKREKETN | 0.598 ± 0.026
136 | RKKTQQKTQNIQ | 0.67 ± 0.024
137 | RKNGEDLKKRGT | 0.726 ± 0.077
138 | RKNHPEKKKKPN | 0.673 ± 0.024

Row | Sequence | protein stability index
139 | RKNIKYNTKNSI | 0.654 ± 0.03
140 | RKQNVASESERK | 0.752 ± 0.094
141 | RKQQGDNHKGRG | 0.706 ± 0.14
142 | RKQRAGRRKDKQ | 0.734 ± 0.043
143 | RKRIPSITLPPP | 0.754 ± 0.063
144 | RKRKEKSLKAKL | 0.784 ± 0.084
145 | RKTHTRTQKRKL | 0.675 ± 0.01
146 | RKTKIKKLGRDK | 0.644 ± 0.1
147 | RKTRKKNRIRGI | 0.6857 ± 0.0054
148 | RLAVQCVCQIGI | 0.621 ± 0.019
149 | RLDDFSALPPRY | 0.781 ± 0.064
150 | RLDFFIFSRWWI | 0.727 ± 0.031
151 | RLFASNPALSNL | 0.709 ± 0.027
152 | RLFHYPPPRHSY | 0.61 ± 0.043
153 | RLFSAWGCGLPL | 0.7 ± 0.019
154 | RLGGRDCWGPWG | 0.693 ± 0.017
155 | RLGGRGRGSIHS | 0.652 ± 0.022
156 | RLGVTVPLSGTV | 0.5342 ± 0.00099
157 | RLGWGGVGVAGV | 0.683 ± 0.013
158 | RLHAILKRSGLE | 0.722 ± 0.068
159 | RLHCEGCDPGSL | 0.7189 ± 0.0015
160 | RLIDMNFPVKKE | 0.709 ± 0.04
